# Experimental data published in patent US20220074941A1, “HSP90 COMBINATION THERAPY” (Sloan-Kettering Institute for Cancer Research, priority 2011, published 2022).
# B1: LTV1 (protein, UniProt Q96GA3 1-475, looked up)
# Protein LTV1 homolog: MPHRKKKPFIEKKKAVSFHLVHRSQRDPLAADESAPQRVLLPTQKIDNEERRAEQRKYGVFFDDDYDYLQHLKEPSGPSELIPSSTFSAHNRREEKEETLVIPSTGIKLPSSVFASEFEEDVGLLNKAAPVSGPRLDFDPDIVAALDDDFDFDDPDNLLEDDFILQANKATGEEEGMDIQKSENEDDSEWEDVDDEKGDSNDDYDSAGLLSDEDCMSVPGKTHRAIADHLFWSEETKSRFTEYSMTSSVMRRNEQLTLHDERFEKFYEQYDDDEIGALDNAELEGSIQVDSNRLQEVLNDYYKEKAENCVKLNTLEPLEDQDLPMNELDESEEEEMITVVLEEAKEKWDCESICSTYSNLYNHPQLIKYQPKPKQIRISSKTGIPLNVLPKKGLTAKQTERIQMINGSDLPKVSTQPRSKNESKEDKRARKQAIKEERKERRVEKKANKLAFKLEKRRQEKELLNLKKNVEGLKL
# B2: FIP1L1 (protein, UniProt Q6UN15 1-594, looked up)
# Pre-mRNA 3'-end-processing …: MSAGEVERLVSELSGGTGGDEEEEWLYGGPWDVHVHSDLAKDLDENEVERPEEENASANPPSGIEDETAENGVPKPKVTETEDDSDSDSDDDEDDVHVTIGDIKTGAPQYGSYGTAPVNLNIKTGGRVYGTTGTKVKGVDLDAPGSINGVPLLEVDLDSFEDKPWRKPGADLSDYFNYGFNEDTWKAYCEKQKRIRMGLEVIPVTSTTNKITAEDCTMEVTPGAEIQDGRFNLFKVQQGRTGNSEKETALPSTKAEFTSPPSLFKTGLPPSRNSTSSQSQTSTASRKANSSVGKWQDRYGRAESPDLRRLPGAIDVIGQTITISRVEGRRRANENSNIQVLSERSATEVDNNFSKPPPFFPPGAPPTHLPPPPFLPPPPTVSTAPPLIPPPGFPPPPGAPPPSLIPTIESGHSSGYDSRSARAFPYGNVAFPHLPGSAPSWPSLVDTSKQWDYYARREKDRDRERDRDRERDRDRDRERERTRERERERDHSPTPSVFNSDEERYRYREYAERGYERHRASREKEERHRERRHREKEETRHKSSRSNSRRRHESEEGDSHRRHKHKKSKRSKEGKEAGSEPAPEQESTEATPAE
# B3: APRT (protein, UniProt P07741 2-180, looked up)
# Adenine …: ADSELQLVEQRIRSFPDFPTPGVVFRDISPVLKDPASFRAAIGLLARHLKATHGGRIDYIAGLDSRGFLFGPSLAQELGLGCVLIRKRGKLPGPTLWASYSLEYGKAELEIQKDALEPGQRVVVVDDLLATGGTMNAACELLGRLQAEVLECVSLVELTSLKGREKLAPVPFFSLLQYE
# Tested on: Hsp90 complexes in K562 cell extract
# Assay: Nano-LC-MS/MS of PU-beads pull-downs
# Type: binding
# Conditions: protein identified in PU-beads pull-down of K562 cell extract, Prep 1; QSTAR-Elite QTof MS
# In short: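 Lysates pre-cleared overnight at 4 °C with control beads, then pulled down with PU-beads or control beads; eluted proteins (2% SDS boil) gel-separated and analysed by nano LC-MS/MS on a QTof. Mascot identification (p<0.05), spectral counts and sequence coverage evaluated in Scaffold.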
row,Molecule,"Number of Assigned Spectra, K562 Prep 1"
1,B1,5
2,B2,6
3,B3,0

# Same assay, conditions: protein identified in PU-beads pull-down of K562 cell extract, Prep 2; QSTAR-Elite QTof MS
row,Molecule,"Number of Assigned Spectra, K562 Prep 2"
1,B1,6
2,B2,3
3,B3,0

# Tested on: Hsp90 complexes in Mia-PaCa-2 cell extract
# Assay: Nano-LC-MS/MS of PU-beads pull-downs
# Type: binding, human
# Conditions: protein identified in PU-beads pull-down of Mia-PaCa-2 cell extract; QSTAR-Elite QTof MS
# In short: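 Lysates pre-cleared overnight at 4 °C with control beads underwent PU-bead pull-down; bound proteins were SDS-eluted, gel-separated, digested and analyzed by nano-LC-MS/MS on a QTof. Identifications used significance p<0.05, 0.4 Da tolerances and one missed cleavage; unique peptide (spectral) counts and sequence coverage were reported.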
row,Molecule,"Number of Assigned Spectra, Mia-Paca 2"
1,B1,0
2,B2,0
3,B3,6
